Experimental data: the nanobody polyreactivity screen of Harvey et al. (2022)

Experiment: yeast display, Sf9 membrane polyspecificity reagent, FACS + sequencing; frameworks hold sequencing errors
Method in brief: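 Using colony PCR, genes from sorted yeast display clones were amplified, then sequenced on MiSeq at 2 × 250 and filtered by CDR length. The clones had been stained with 10% biotinylated, detergent-solubilized Sf9 membrane reagent for 1 hour at 4 °C and sorted by FACS into low and high (top ~1%) gates on anti-HA and streptavidin fluorescence. Polyreactivity labels come from the gate of origin.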

Row | Sequence | polyreactivity (PSR sort gate)
1 | QVQLVESGGGLVQAGGSLRLSCAASGFIFYSYAMGWNRQAPGKERELVADISRSGSTNYADSVKGRFTISRDNAKNTVYLQMNSLKPEDTAVYYCNKGYHSWSRLSQFGWSYDYWGQGTQVTVSS | high polyreactivity
2 | QVQLVESGGGLVQAGGSLRLSCAASGFIFQPYAMGWYRQAPGKERELVAAINFSGGSTYYADSVKGRFTISRDNAKNTVYLQMNSLKPEDTAVYYCARAGRYAAYSPFYYWGQGTQVTVSS | high polyreactivity
3 | QVQLVESGGGLVQAGGSLRLTSAASGRTFFRYAMRWYRQAPGKERELVAAISRGGGRTYYADSVKGRFTISRDNAKNTVYLQMNSLKPEDTAVYYCNKTERSGSNYLGQGTQVTVSS | high polyreactivity
4 | QVQLVESGGGLVQAGGSLRLSCAASGSIFYRYAMGWYRPAPGKERELVAAISSTGSTYYADSVKGRFTISRDNAKNTVYLQMNSLKPEDTAVYYCAARQGFRSYRRYDYWGQGTQVTVSS | high polyreactivity
5 | EVQLEESGGGLVQAGGSLRLSCAASGSTFYQYALGWSRQAPGKERELVAAITTIGGRTYYADSVKGRFTISRDNAKNTVYLQMNSLNPEDTAVYYCAAGYRAWEPYGHYGYWGQGTQVTVSS | high polyreactivity
6 | QVQLVESGGGLDQAGGSLRLSCAASGYTFFSNAMGWYRQAPGKERELVAAITFSGGSTYYADSVKGRFTISRDNAKNTVYLHMNSLKPEDTAVYYCATRYYYHYPRKHIYNYWGQGTQVTVSS | high polyreactivity
7 | QVQLVESGGGLVQAGGSLRVSCAASGRIFKSNAMGWYRPAPGKERELVASSTASGGRTYYADSVKGRFTISRDNAKNTVYLQMNSLKPEDTAVYYCAAGRPFSKYGYWGQGTQVTVTS | high polyreactivity
8 | QVQLVETGGGLVQAGGSLRLSCAASGRTFRAYAMGWYRQAPGKEMELVAAITSGGSTKYADSVNGRFTISRDNAKNTVYLQMTRLKPEDTAVYYCAATLALESYIYDYWGQGTQVTVSS | high polyreactivity
9 | QVQLVESGGGLVQAGGSLRLSCAASGSTFNRYAMGWYRQAPGKERELVASISWGGGRTYYADSVKGRFTISRDNAKNTVYLQMNSLKPEDTAVYYCATDRYYRHYEVDYWGQGTQVTVSS | low polyreactivity
10 | QVHLVESGGGLVQAGGSLRLSCAASGSIFVAYAMGWYRQAPGKERELVAAISSSGGTTYYADSVKGRFTISRDNAMNTVYLQMNSLKPEDTAVYYCAARDYKFYYWGQGSQVTVSS | high polyreactivity
11 | QVQHVESGRGLVQAGGRLRLSCADSGMTFGYSAMGWYRPAPGKDRELVAAISGTAGDTYYADSVKGRFTISRDNAKNTVYLQMNSLKAEVTAVYYCAKVKRWFGVTIELDYWGQGTQGTVSS | low polyreactivity
12 | QVQLVESGGGLVQAGGSLRLSCAASGSIFGGYTMGWYRQAPGKERELVAAISRRGGNTYYADSVKGRFTISRDYAKNTVYLQMNSLKPDDTAVYFCAKRYASTSGYWGQGTQVTVSS | high polyreactivity
13 | QVQHVESGGGLVHAGGSLRLSCAASGTTFYFNPMGWSRQAPGKERELVASITWRGVSTYYADSVKGRFTISRDNAKNTVYLHMNSLNPEDTAVYYCAVAAGIPQRRFYYWGQGTQVTVSS | high polyreactivity
14 | QVQLVESGGGLVQAGGSLRLSCAASGRTFVGYAMGWYRQAPGKERELVAAITYSGVSTYYADSVKGRFTISRDNAKNTVYLQMNSLKPEDTAVYYCAADYISVYGYEYYYWGQGTQVTVSS | high polyreactivity
15 | QVQLVESGGGLVQAGGSLRLSCAASGSTFGENDMGWYRQAPGKERELVAAITWSGGSTYYADSVKGRFTISRDNAKNPVYLQLNSLNPEDTAVYYCAARSTYRHWYRTGSRFDYWGQGTQVTVSS | low polyreactivity
16 | QVQLVESGGGLLQAGGSLRLSCAATGFIFWYYAMGWYRQAPGKEREFVADISSGGSTNYADSVKGRFTISRDNAKNTVYLQMNSLKPEDTAVYDCSKDNYPYHSTVLAVIYDYWGHGTQVTVSS | low polyreactivity
17 | QVQLVESGGGLVQAGGSLRLRCAASGYIFGAYALGWYRQAPGKERELVAAIHVGDASAYYADSVKGRFTISRDNAKKTVYLQMNSLKPEDTAVYYCAKDRGSWEWYTVDYWGQGTQVTVSS | low polyreactivity
18 | QVHLVESGGGVVQAGGSRRLSCAASGSIIHDNAMGWYRQAPGKERELVADITWSGGSTYYADSVKGRFTISRDNAKITVYLQMNSLKPEETAVYDCAAGSGHWYYYDFDYWGQGTLVTVSS | high polyreactivity
19 | QVQLVESGGGLVKAGGSLRLSCAASGRIFYNFSMGWSRQAHGKERELVAAISGSGGSTYYADSVKGRFTISRDNAKNTVYLQMNSLKPEDTAVYYCSTSGPQYYSRNFDYWGQGTQVTVSS | low polyreactivity
20 | QVQLVESGGGIVQAGGSLRLSCAASGRTFSPYAKGWYRQAPGKERELVAAITLSGSSTYYADSVKGRFTISRDNAKNTVYLQMNRLKPEDTAVYYCAADYLYSWYRYVTYDYWGQGTQVTVSS | high polyreactivity
21 | QVQLVESGGGLVQAGGSLRLSCAASGRIIWINAMGWDRQAPGKERELVATITKRGGRTYYADSVKGRFTISRDNAKNTVYLQMNSLKPEDTAVYSCNTGHEARHSQYQGGVYQDMGYWGQGTQVTVSS | low polyreactivity
22 | QVQLVESGGGLVQAGGSLRLSCAASGSIFTYAMGWYRQAPGKERELVAAITYSGGRTDYADSVKGRFTISRDNAKNTVYLQMNSLKPEDTAVYYCAVRARPYPYYGALMYYWGQGTQVTVSS | low polyreactivity

Row | Sequence | polyreactivity (PSR sort gate)
23 | QVQLVESGGGLVQAGGSLRLSCAASGGTFRVYAMGWYRQAPGKERELVAAITGRGGSTYYADSVKGRFTISRDNAKNTVYLQMNSLKPEDTAVYYCAAQAYWDFGSVARRDSWGQGTQVTVSS | low polyreactivity
24 | QVQLVESGGGLVQAGGSLRISCAASGRIFFTNAMGWYRQAPGKDRELVAAISKSGARTYYADSVKGRFTISRDNAKNTVYLQMNSLKPEDTAVYYCSEFYYWGQGTQVTVSS | high polyreactivity
25 | QVQLVESGGGLVQAGGSLRLICAASGYTFYFYAMGWYIQAPGKERELVAAITGGGTTSYADSVKGRFTISRDKAKNTVYLQMNSLKPEDTAVYYCASSVRNNIERYRDYYWGQGTQVTVSS | low polyreactivity
26 | QVQLVESGGGLVQAGGSLRLSCAASGIILGKNAMGWYRQAPGNERELVASITSGAGITYYADSVKGRFTISRDNAKNTVNLQINSLKPEDTAVYYCAADWSGDYFTDGYWGQGPQVTVSS | low polyreactivity
27 | QVHLVESGGGLLQAGGSLPLSCAASGSIFYSYAMGWYRQAPGKVRELVAVISWSGGSTYYADSVKGRFTISRDNAKNTVYLQMNSLKPEDTAVYYCAADQGWEFDYWGQCTQVTVSS | low polyreactivity
28 | QVHLVESGGGLVQAGGSLRLSSAPSGSILLINAMGWYRQAPGKERELVAAIRTGGSTYYADSVKGRFTISRDNAKNTVYLQMNSLKPEDTAVYYCNVDYDVQPGGEFDYWGQGTQVTVSS | low polyreactivity
29 | QVQLVESGGGLVQAGGSLLLSCAASGSTFNDNAMGWYRQAPGKERELVAAIDSGGITNYADSVKGRFTISRDNAKNTVYLQMNSLKPEDTAVYYCAVEGEYLTPSGRYRLDYWGQGTEVTVSS | low polyreactivity
30 | QVQLVESGGGLVQAGGSLRLSCAASGSIFTYNVMGWYRQAPGKERELVASISWSGGRTYYADSVKGRFTISRDYAKNTVYLQMNSLKPEDTAVYYCNNVRPPVYFPNRDYWGQGTQVNVSS | low polyreactivity
31 | QVQLVESGGGLVQAGGSLRLSCAASGSIFPKYAMGWYRQAPGKERELVATISYRGGRTYYADSVKGRFTISRDNAKNTVYLQMNSLKPEDTAVYYCAGADYGSYPTYGYFEYYYWGQGTQVTVSS | low polyreactivity
32 | QVQLVESGGGLVQARGSLRLSCAASLLTFGKNDMGWYRQAPGKEREFVAAITSRGGYTYYADSVKGRFTISRDNAKNTVYSQMNSLKPEDTAVYYCNREYKRPSQRTEHSYWGQGTQVTVSS | low polyreactivity
33 | QVQLVESGGGLDQAGGSLRLSCAASGFIFPAYAMGWYRQAPGKERELVAAITTRGGSTYYADSVKGRFTISRDNAKNTVYLQMNSLKPEDTAVYYCAAYAVWYRYYYWGQGTQVTVSS | low polyreactivity
34 | QVQLQESGGGLVQAGGSLRLSCAASGTISPLPAMGWYRQAPGKEREFVAGIDTGAITNYADSVKGRFTISRDNAKNTVYLQMNSLKPEDTAVYYCAVFQAAYDYYERYYTYWGQGTQVTVSS | low polyreactivity
35 | QVQLVESVGGLVQAGGSLRLSCAASGSTSRIYAIGRYRKAPGKEREWVAAISRSGGSTYYADSVKGRFTISRDNAKNTVYLQMNSLKPEDTAVYYCAKDASKETSGGDYWGQGTQVTVSS | high polyreactivity
36 | QVQLVESGGGLVQAGGSLRLSCAGSGRIFREYPMGAYRHAPGKARELVAAITASGGGTYYADSVKGRFTLSRDNAKNTVYLQMNSLKPEDSAVYYCNAVLAPGGYDYWGQGTQVTVSS | low polyreactivity
37 | QVQLVESGGGLVQAGGSLRLSCASSGSTFKYYAMGWYRQSPGKERELVAAISGTGGSTYYADSVKGRFTISRDNAKNTVYLQMNCLKPEDTAVYYCNTYPYIRYDYWGQGTQVTVSS | high polyreactivity
38 | QVQLVESGGGLVQAGGSLRLSCAASGITFWYYVMGWYRQAPGKERELFAAITLSGGSTYYADSVKGRFTISRDNAKNTVYLQMNSLKPEDTAVYYCNADGSAGIRGKYDYWGQGTQVTVSS | low polyreactivity
39 | QVQLVESGGGLVQAGGSLRLSCAASGFTFWAYAMGWYRPAPGKERELVARISGSGGRTYYADSVKGRFTISRDNAKNTVYLQMNSLKPEDTAVYYCAARRYYYPVGYDYWGEGTQVTVSS | high polyreactivity
40 | QVQLVESGGGLVQAGGSLRLSCAASGSIFSWSAMGWYRQAPGKVRELVAGITWTGGSTYYADSVKGRFTISRDNAKNTVYLQRNSLKPEDTAVYYCNARRATYRKYTPVPFDRYDYWGQGTQVTVSS | high polyreactivity
41 | QVQLEETGGGLVQAGGSLRLSCAASGITFGDYAMGWYRQAPGKERELVAAISFTGASTYYADSVKWRFTISRDNAKNTVYLLMNSLKPDDTPVYYCAADPYVPYQDFLSGFDFWGQGTQVTVSW | low polyreactivity
42 | QVQLVESGGGLVQAGCSLRLSCAASGSIFYGYAMGWYRQAPGKERELVARITGSGGDTSYADSVKGRFTISRDNAKNTVYLQMNSLKPEDTAVYYCNTDLYITYTLYTGSEYDYWGQGTQVTVSS | low polyreactivity
43 | QVQLVESGGGLVQAGGSLRLSCAASGITVFENAMGWYRQAPGKERELVAAISYSGGSTYYADSVKGRFTISRDNAKNTVYLQMNSLKPEDTAVYYCAADWYYFLYIRNRWGYGYWGQGTQVTVSS | high polyreactivity
